B2: Fy-2 (Ppp1r21) (natural protein, human, UniProt Q6ZMI0 1-780, looked up)
chain: MASAELQGKYQKLAQEYSKLRAQNQVLKKGVVDEQANSAALKEQLKMKDQSLRKLQQEMDSLTFRNLQLAKRVELLQDELALSEPRGKKNKKSGESSSQLSQEQKSVFDEDLQKKIEENERLHIQFFEADEQHKHVEAELRSRLATLETEAAQHQAVVDGLTRKYMETIEKLQNDKAKLEVKSQTLEKEAKECRLRTEECQLQLKTLHEDLSGRLEESLSIINEKVPFNDTKYSQYNALNVPLHNRRHQLKMRDIAGQALAFVQDLVTALLNFHTYTEQRIQIFPVDSAIDTISPLNQKFSQYLHENASYVRPLEEGMLHLFESITEDTVTVLETTVKLKTFSEHLTSYICFLRKILPYQLKSLEEECESSLCTSALRARNLELSQDMKKMTAVFEKLQTYIALLALPSTEPDGLLRTNYSSVLTNVGAALHGFHDVMKDISKHYSQKAAIEHELPTATQKLITTNDCILSSVVALTNGAGKIASFFSNNLDYFIASLSYGPKAASGFISPLSAECMLQYKKKAAAYMKSLRKPLLESVPYEEALANRRILLSSTESREGLAQQVQQSLEKISKLEQEKEHWMLEAQLAKIKLEKENQRIADKLKNTGSAQLVGLAQENAAVSNTAGQDEATAKAVLEPIQSTSLIGTLTRTSDSEVPDVESREDLIKNHYMARIVELTSQLQLADSKSVHFYAECRALSKRLALAEKSKEALTEEMKLASQNISRLQDELTTTKRSYEDQLSMMSDHLCSMNETLSKQREEIDTLKMSSKGNSKKNKSR

The series “cryo-EM structure” concerns the molecule itself. The experiment in a line: cryo-EM structure.
Another series concerns the target T1, Fy-1 (Tbck) (human, UniProt Q8TEA7 1-893).
T1 sequence (looked up): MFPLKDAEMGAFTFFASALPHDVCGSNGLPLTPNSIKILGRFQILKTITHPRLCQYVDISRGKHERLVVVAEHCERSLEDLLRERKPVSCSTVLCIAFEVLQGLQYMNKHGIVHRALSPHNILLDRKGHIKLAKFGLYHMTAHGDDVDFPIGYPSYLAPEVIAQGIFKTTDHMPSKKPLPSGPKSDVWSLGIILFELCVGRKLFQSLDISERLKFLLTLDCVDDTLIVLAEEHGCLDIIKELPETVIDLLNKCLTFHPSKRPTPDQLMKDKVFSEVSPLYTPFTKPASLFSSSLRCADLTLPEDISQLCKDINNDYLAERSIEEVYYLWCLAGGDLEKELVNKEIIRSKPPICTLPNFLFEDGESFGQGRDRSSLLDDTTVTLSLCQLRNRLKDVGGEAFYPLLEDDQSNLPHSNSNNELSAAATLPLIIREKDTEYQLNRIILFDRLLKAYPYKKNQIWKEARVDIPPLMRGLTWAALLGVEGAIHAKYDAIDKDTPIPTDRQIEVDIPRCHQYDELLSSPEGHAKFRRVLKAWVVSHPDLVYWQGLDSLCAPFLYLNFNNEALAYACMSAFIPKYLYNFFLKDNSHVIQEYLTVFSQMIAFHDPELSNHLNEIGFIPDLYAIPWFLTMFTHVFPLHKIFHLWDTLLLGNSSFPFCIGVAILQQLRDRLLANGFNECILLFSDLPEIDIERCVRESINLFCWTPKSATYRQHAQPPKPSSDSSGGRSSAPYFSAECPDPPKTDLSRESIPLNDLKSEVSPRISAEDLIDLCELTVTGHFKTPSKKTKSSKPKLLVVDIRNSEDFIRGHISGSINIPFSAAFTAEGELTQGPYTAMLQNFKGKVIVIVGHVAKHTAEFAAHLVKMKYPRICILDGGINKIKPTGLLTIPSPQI
The experiment in a line: HDX-MS.

Series [1] has as its target B2. The experiment in a line: HDX-MS.
Series [2] deals with B2. Nature of the series: cryo-EM structure.

Results on five molecules are retold here after paper doi:10.1101/2021.06.21.449265 (bioRxiv, 2021).

The term stoichiometry N denotes a count of units in the complex or per binding partner.

B1: Fy-5 (Gatd1) (natural protein, human, UniProt Q8NB37 1-220, looked up)
chain: MASERLPNRPACLLVASGAAEGVSAQSFLHCFTMASTAFNLQVATPGGKAMEFVDVTESNARWVQDFRLKAYASPAKLESIDGARYHALLIPSCPGALTDLASSGSLARILQHFHSESKPICAVGHGVAALCCATNEDRSWVFDSYSLTGPSVCELVRAPGFARLPLVVEDFVKDSGACFSASEPDAVHVVLDRHLVTGQNASSTVPAVQNLLFLCGSRK
For B1, the “stoichiometry N” value in the series “cryo-EM structure” turned out to be 2. For B2, the “stoichiometry N” value in “cryo-EM structure” came out at 2. Besides, in the series with Fy-1 (Tbck), the binding result is listed as “binds”.

B3: Fy-3 (C12orf4) (natural protein, human, UniProt Q9NQ89 1-552, looked up)
chain: MKKNRERFCNREREFVYKFKVGSQCLELRVPLKFPVQENASHLHGRLMLLHSLPCFIEKDLKEALTQFIEEESLSDYDRDAEASLAAVKSGEVDLHQLASTWAKAYAETTLEHARPEEPSWDEDFADVYHDLIHSPASETLLNLEHNYFVSISELIGERDVELKKLRERQGIEMEKVMQELGKSLTDQDVNSLAAQHFESQQDLENKWSNELKQSTAIQKQEYQEWVIKLHQDLKNPNNSSLSEEIKVQPSQFRESVEAIGRIYEEQRKLEESFTIHLGAQLKTMHNLRLLRADMLDFCKHKRNHRSGVKLHRLQTALSLYSTSLCGLVLLVDNRINSYSGIKRDFATVCQECTDFHFPRIEEQLEVVQQVVLYARTQRRSKLKESLDSGNQNGGNDDKTKNAERNYLNVLPGEFYITRHSNLSEIHVAFHLCVDDHVKSGNITARDPAIMGLRNILKVCCTHDITTISIPLLLVHDMSEEMTIPWCLRRAELVFKCVKGFMMEMASWDGGISRTVQFLVPQSISEEMFYQLSNMLPQIFRVSSTLTLTSKH
On to B3, for which the binding result with Fy-2 (Ppp1r21) [1] is “binds”.

B4: Rab5 (Rab5a), GTPγS loaded (natural protein, human, UniProt P20339 1-215, looked up)
chain: MASRGATRPNGPNTGNKICQFKLVLLGESAVGKSSLVLRFVKGQFHEFQESTIGAAFLTQTVCLDDTTVKFEIWDTAGQERYHSLAPMYYRGAQAAIVVYDITNEESFARAKNWVKELQRQASPNIVIALSGNKADLANKRAVDFQEAQSYADDNSLLFMETSAKTSMNVNEIFMAIAKKLPKNEPQNPGANSARGRGVDLTEPTQPTRNQCCSN
Take B4: in the series with Fy-2 (Ppp1r21) [1], the binding result is on record as “binds”.

B5: Fy-4 (Cryzl1) (natural protein, human, UniProt O95825 1-349, looked up)
chain: MKGLYFQQSSTDEEITFVFQEKEDLPVTEDNFVKLQVKACALSQINTKLLAEMKMKKDLFPVGREIAGIVLDVGSKVSFFQPDDEVVGILPLDSEDPGLCEVVRVHEHYLVHKPEKVTWTEAAGSIRDGVRAYTALHYLSHLSPGKSVLIMDGASAFGTIAIQLAHHRGAKVISTACSLEDKQCLERFRPPIARVIDVSNGKVHVAESCLEETGGLGVDIVLDAGVRLYSKDDEPAVKLQLLPHKHDIITLLGVGGHWVTTEENLQLDPPDSHCLFLKGATLAFLNDEVWNLSNVQQGKYLCILKDVMEKLSTGVFRPQLDEPIPLYEAKVSMEAVQKNQGRKKQVVQF
Take B5: the binding result in the series with Fy-2 (Ppp1r21) [2] is “binds”. Also, in the series “cryo-EM structure”, the “stoichiometry N” value was found to be 2.
